# Article PMC3720670, “Function and X-Ray crystal structure of Escherichia coli YfdE” (PLoS ONE, 2013)
# B1: YfdE (Escherichia coli K-12) (protein)
# chain: MTNNESKGPFEGLLVIDMTHVLNGPFGTQLLCNMGARVIKVEPPGHGDDTRTFGPYVDGQSLYYSFINHGKESVVLDLKNDHDKSIFINMLKQADVLAENFRPGTMEKLGFSWETLQEINPRLIYASSSGFGHTGPLKDAPAYDTIIQAMSGIMMETGYPDAPPVRVGTSLADLCGGVYLFSGIVSALYGREKSQRGAHVDIAMFDATLSFLEHGLMAYIATGKSPQRLGNRHPYMAPFDVFNTQDKPITICCGNDKLFSALCQALELTELVNDPRFSSNILRVQNQAILKQYIERTLKTQAAEVWLARIHEVGVPVAPLLSVAEAIKLPQTQARNMLIEAGGIMMPGNPIKISGCADPHVMPGAATLDQHGEQIRQEFSS
# notes: untagged full-length, recombinant in E. coli BL21(DE3), plasmid pJK566 (Arg232 repaired), only partially purified; dimer
# B2: YfdE fused to an N-terminal hexahistidine tag (H6YfdE) (enzyme, Escherichia coli, UniProt P76518 1-381, looked up)
# chain: B1 chain
# notes: YfdE, Escherichia coli; yfdE gene amplified from genomic DNA of a strain BW25113 derivative; last residue Ser381; Expressed from pET28a (NdeI/XhoI); The appendage and the first five to six residues are disordered in the crystal; also called acetyl-CoA:oxalate CoA-transferase; ACOCT; source: E. coli C41(DE3), purified (ammonium sulfate, metal-charged nitrilotriacetic acid column); not shown: His6, …
# B3: H6YfdE (Escherichia coli K-12) (protein)
# chain: B1 chain
# notes: full-length with N-terminal hexahistidine tag kept, pET28a (pJK593), E. coli C41(DE3); last residue Ser381; dimer
# B4: YfdEH6 (Escherichia coli K-12) (protein)
# chain: B1 chain
# notes: full-length with C-terminal hexahistidine tag kept (stop codon converted to Ser), pJK594, E. coli C41(DE3)
# Tests used:
# [1] = target: UctC (Acetobacter aceti strain 1023) (UniProt A9X6P9); experiment: SEC; analytical gel filtration, Superdex 200 Hi-load 16/60, 50 mM Tris-HCl pH 8.0, 100 mM KCl; apparent solution molecular weights from retention times
# [2] = substrate: CC(=O)SCCNC(=O)CCNC(=O)[C@H](O)C(C)(C)COP(=O)(O)OP(=O)(O)OC[C@H]1O[C@@H](n2cnc3c(N)ncnc32)[C@H](O)[C@@H]1OP(=O)(O)O; experiment: HPLC of oxalyl-CoA formation, Michaelis-Menten fit; assay type: biochemical, Escherichia coli; details: 50 mM oxalate (subsaturating, value likely lower than true), 50 mM potassium phosphate, pH 6.7, parameter symbol, unit prefix and kcat unit not given, inferred
# [3] = target: the molecule itself; experiment: SEC; analytical gel filtration, Superdex 200 Hi-load 16/60, 50 mM Tris-HCl pH 8.0, 100 mM KCl; apparent solution molecular weights from retention times
# [4] = substrate: CC(=O)SCCNC(=O)CCNC(=O)[C@H](O)C(C)(C)COP(=O)(O)OP(=O)(O)OC[C@H]1O[C@@H](n2cnc3c(N)ncnc32)[C@H](O)[C@@H]1OP(=O)(O)O; experiment: HPLC of oxalyl-CoA formation, Michaelis-Menten fit; assay type: biochemical, Escherichia coli; details: 50 mM oxalate (subsaturating, value likely lower than true), 50 mM potassium phosphate, pH 6.7, parameter symbol, unit prefix and kcat unit not given, inferred; remark: listed apart in the source
# Text: HPLC of oxalyl-CoA formation, Michaelis-Menten fit on H6YfdE
molecule,measurement,setting,value
UctC (from UniProt A9X6P9 1-389) (enzyme),stoichiometry N,[1],2
B1,Km,[2]; partially pure enzyme,17 µM
same,kcat,[2]; partially pure enzyme,11 s⁻¹
B2,stoichiometry N,[3],2
B3,Km,[4],18 µM
same,kcat,[4],12 s⁻¹
B4,Km,[2],13 µM
same,kcat,[2],6.9 s⁻¹
